kf, fast-phase rate constant of chaperone-assisted refolding of denatured CfaB and ratio between CfaA and CfaB (densitometry of the pull-down) data for 1 substance are collected here from PMC5161713.

In test [1] the target is wild-type CfaB, mature form, with N-terminal hexahistidine tag (^wtCfaB, (his)6CfaB) (enterotoxigenic Escherichia coli (ETEC)) (UniProt E3PPC4).
For test [2] the target is unchanged. In words: pull-down.

As for “wild-type CfaA with C-terminal Strep-tag (^wtCfaA, CfaA(Strep)) (natural protein)”, in test [1], the kf, fast-phase rate constant of chaperone-assisted refolding of denatured CfaB was found to be 0.54 s⁻¹. Also, the ratio between CfaA and CfaB (densitometry of the pull-down) in test [2] turned out to be 0.6.
